Measurements reported in the DeepSol protein solubility set.

Test: soluble on expression in E. coli; label from the status in PepcDB or PDB records

Sequence | soluble on expression in E. coli
MGSDKIHHHHHHMPQYTVYLAPAGYEQDLIDELGPRVIDVRGRLVRASGGPRHAAWAQNIWLDPVEMRIGSIGDAATRLKGIQRNWFLHAVDHHRRAALIAGKLPHVSARPHVFGTPAPTAPLGSWTLWEHDLVIASARCSSPFPDGEVHFVENRIDPPTRAYLKLWETFTRLGVQPAPGELCLDMGSCPGGWTWVLAGLGARVFSVDKADIAPHIAAMPNVNFCTGSAFGLDPQHAGAVDWFFSDVICYPDRLLATVQRWLERGQCRNFVCTLKFQATTDHATAAAFAAIPGSQLFHLAHNKHELTWVLLRDKA | not soluble
NYRSRAAYKLIELDNKYLFLKKNKIILDIGCYPGSWCQVILERTKNYKNKIIGIDKKIMDPIPNVYFIQGEIGKDNMNNIKNINYIDNMNNNSVDYKLKEILQDKKIDIILSDAAVPCIGNKIDDHLNSCELTLSITHFMEQYINIGGTYIVKMYLGSQTNNLKTYLKGMFQLVHTTKPKASRNESREIYLVCKNFLGRKK | soluble
MMHMDESRKEIIREEAKRAKAIAVEKYKAGDFAGAKEFALKAKQINPALGGLRRLNALLDVCMGFQKQVNGEVDWYDVLAVERTADFITIFNRYSTLAIDISLDRDESVGSGVKEALKILTDASKYFLERRELLPSRRVSGPINQLSRISCEGSKQKEPPPTNLLHVSKLTRMSEDAEIRHDISPNRLRSALARKATSVIKLSLETFVCSSPHNNVGAAEETDNKVMEE | soluble
MSLLVQFDEFKGHSHEQFMEELDTIMLVSINKLHDNMDLRRRLLIYSVFGKVFQHRKMGILAPHGQEETF | not soluble
MSLSYLTEEKLTIVGAAGMIGSNMAQTAAMMRLTPNLCLYDPFAVGLEGVAEEIRHCGFEGLNLTFTSDIKEALTDAKYIVSSGGAPRKEGMTREDLLKGNAEIAAQLGKDIKSYCPDCKHVIIIFNPADITGLVTLIYSGLKPSQVTTLAGLDSTRLQSELAKHFGIKQSLVTNTRTYGGHGEQMAVFASTAKVNGTPLTDLIGTDKLTNEQWAELKQRVVKGGANIIKLRGRSSFQSPSYVSIEMIRAAMGGEAFRWPAGCYVNVPGFEHIMMAMETTITKDGVKHSDINQLGNEAERAALKESYSHLAKLRDEVIAMGIIPAIADWKTVNPNEGHHHHHH | soluble
MIFEDKFIITTADEIPGLQLYSLGIASTISDNVDEIVENLRKQVKAKGGMGLIAFRITCADGKFLGYGTIVKADEAQFTMA | soluble
MTDIAKLEPTAVWEHFQTLCDIPRPSKHEEQVRDYMKGWAELRGLETVVDKVGNLIIRKPATPGYEDRAGVVLQGHLDMVCQANSGTEHDFFKDPIRPVLKDGWLVAENTTLGADNGIGVALGMAVLSGDDVAHGPVEVLLTLDEEAGMGGALGLETGLLRGQYLINIDTEEWGEFYMGCAGGVDVNVTREYAVEAVPAGFQTASLTIKGLKGGHSGADIHLGRGNANKILIRLLRELEAETELRLSSLQGGTARNALSREAFAVVAYPTADAAKVAAKLDAFQALMRFELAGVDEGVSVLSEAAPAAGVLARADQDVILAALHAAPHGVKRMSQRVEGVVETSNNLGVVSVADGKVFANLMVRSLLDSGTWMLAREAESLFKLAAFKVEMEGGYPGWAPNPQSKLLALFKDVYRREFGAEAEVQVIHAGLECGILGSKYPNLDMVSFGPNIRGAHAPGERVEVESVGKAWQLLQAVLKAIPARLEHHHHHH | soluble
MEQIGLIGYGSMADMIARQLLKHEQIKENELFIETRTKGERLRALMSDYPNVSADPLENWANTCQLILICVPPLHVIETMRRLYPYVNRNTHIVSIAAGVPLRLLEAETEAGISRVIPAITSEAEAGISLVVHSEALAAEKKERLNELLSVFSRVREIKESNLDVASNLTSSAPGFIAAIFEELALSAVRNSSLSKEEAFDFLIHSLYGTGKMLIEKNMSFEETLERVATKGGITGEGAEVIHASVPDVFDEVFERTLRKYELLTEQVGKQTLEHHHHHH | soluble
MIKIPRGTQDILPEDSKKWRYIENQLDELMTFYNYKEIRTPIFESTDLFARGVGDSTDVVQKEMYTFKDKGDRSITLRPEGTAAVVRSYIEHKMQGNPNQPIKLYYNGPMFRYERKQKGRYRQFNQFGVEAIGAENPSVDAEVLAMVMHIYQSFGLKHLKLVINSVGDMASRKEYNEALVKHFEPVIHEFCSDCQSRLHTDPMRILDCKVDRDKEAIKTAPRITDFLNEESKAYYEQVKAYLDDLGIPYTEDPNLVRGLDYYTHTAFELMMDNPNYDGAITTLCGGGRYNGLLELLDGPSETGIGFALSIERLLLALEEEGIELDIEENLDLFIVTMGDQADRYAVKLLNHLRHNGIKADKDYLQRKIKGQMKQADRLGAKFTIVIGDQELENNKIDVKNMTTGESETIELDALVEYFKK | soluble
MAASFVAVQGNADHGVKLKSGLTSAHRLQRRLSSDLRPLAAADLTGDSLPSEERRRTSSSTPDESLRQVMYLNCWAQG | soluble
MGSDKIHHHHHHMSIKTFELISTTENGIQLISYVALPEAASDDNPVAGILVAPEWWGVVEHPKNVTERLAKAGYAAVAMDVYGEGKLTSDAAQANMWMEQVLADQDMLMARCRLILNDFSDQLAVDSDNLGAIGYCFGGKIVLDMAREGMPLKAVATFHGNPSPKQPADKQFSAKVLVAHGRDDSMVSMDAIEGLKAELDGADIDYTIDVYDGAKHGFTNPNADERAAKNGVDLGYNETAAKQSWDNMLEFMKDNLA | not soluble
MKENPSFLKEQIITYLGNKRALLSFLNNGFKVAKKELGKDKFSFCDIFSGSGVVSRFAKAHSNYILANDLEDYSKLINECYLANKDKDLLQNIKKYYKNLIQNLDFQKGFISELYAPKDDDDIKKNERVFYTFKNALYLDTIRQKIENEIPKELRHFFIAPLIYEASVHSNTSGVFKGFYKGKDGIGKFGGEGQNALKRIKGEIELKMPIFSNFSCEFEVMQKDANMLAKELDFFDVVYLDPPYNQHPYSSNYFMLNLIANYKKPEEISKISGIPKDWNRSTFNKSKFAQDALFELINDLKARVILLSYNCEGFVKKEIFLKRLSTLGKCRILEQKYNTFRASRNLKNRNIHLHEQLYILVKN | not soluble
MENSEKLANSKEVIAYIAERFPKCFILEGEAKPLKIGIFQDLAERLSDDPKVSKTQLRAGLRQYTSSWRYLHGVKPGASRVDLDGNPCGELEEEHIEHAKATLEESKAKVATRRKEQAKKAREEAKAKKTARAATPPKRRPQPAAKKVEQPVETRALNADEITVGNNVSVNMGKGNMPATIVEINKDDVRIRLSNGLQMVVKAENLRS | not soluble
MYSIIRPFLLHAVTSVHAGSGSEIGLVDLPIQREKHTGFPKIESSSLKGALRYHMTQALPDETNKLELIFGADKGQESVTQASAIALSDARVLLFPVKSLRGVFAWITCPHVLERWNQEMSVHQEMKGKGEGFQSLPVPGPNTVSADRLIVADGRIILEEYTFPVTVSPEAKQLAEQLSAIIGESSRLRVTDRLVILSDDDFTDFVKLSTEVNARIRISPETGTVDSGALWYEENVPPETFFYSFLYIGHVRGKGVDGLATAEEIERYLVDERKFPSVFQLGGNSTLGRGMMRTIWL | not soluble
MAQHEVITRGGDAFLLKLRESALSSGSMSEEQFFLLIGISSIHSDRVILAMKDYLVSGHSRKDVCEKYQMNNGYFSTTLGRLTRLNVLVARLAPYYTDSVSAIAEAASL | soluble
MSLIKLYDNYVFISQEGGESGERLYSKKFREKSVVDVSGLRIGEGLVVAAGPCSVENEAMILDIARSVKAAGADMIRGGAFKPRTSPYSFQGLAEKGIEYLVEAREETGLPIVTEIMNPEYYRYFDRVDMLQVGSRNAQNFDLLRFLGKQKKPVLLKNGMGNTAREWLETAEYILSGGNGNVVLCYRGVRGIENSTRFTMNVGSIIYAKSETHLPICADPSHASGRRDFVESMALASVAAGADMLEIEVHNDPDNALSDSEQQIRPVDLKRIIEKARALKDLLSHEIEGHHHHHH | not soluble
MNSLIPPPTSEQQMNMFRLRDKMSLLNAEFLKVINGYFTEKNHYDFSGTMKSYMDHVAQLKQIYKVDDDVAADMTVPRRTENSSESSGETVAPRKIAKAVRKNGTPKNPLNSTVFAASSPAATVASVPKFGDISVITKETPAPLAKTAEPLVAPAAPATARKRAIRGGGPLGGAESVVFKSGEDGQAATSSVKIPATTIKFPEPTKDFWTKKSDAPAAPSNSGSLFAFLGKELFSIKKNPPIYQNFSGDKPKETPKFSGFSFGKKPAEPSEEPKAADSTPKLTFGSPKEADLPKPASSLFGASPSKPLVFGGSSADSTTSAPKPFSALSTAASLFGSSSASTTTTATQPLSFGSSSTGGSSLFSGFAGLAQKAMENQNQAKPEGSGEDDEGEYVPPKVETVENQEPDAVLSSKVSVFKFTGKEYTKLGVGMLHIKDNDGKFSVLIRAATATGTVWLNSLCNKAMKATVVDAKGDRIRLTCPSSSTEMATMMIRFGTADGAKKFTDKILEVAV | not soluble
MEEIMLFPLSSVVLPEGKMKLRIFEPRYQRMVAQCSKTGSGFGLCLFDSKSNKNANELSEFGTLVKIVDFETLSDGLLGITVVGIRRFAIRKVRVEYDGLRIATVQWFPDWPSQELLERERFLGEQLQEVYRQFPQIGELHSLCFFDDASWVCQRWLELLPLSKGQFDVLVGQRDCHAALAFLQRTIESHLDT | not soluble
MTTAIQYQVIPLADREHSNKVASILENKYKTATNKRITLNERFGVLEKGYTIQATEPETVKNDSDVFFVVHDRNLNSKKEFVENYLAKNPIVNSPEKVFEEEDKENAPTKKAVLKPSSTDEKKLTSSDIYIQEITRSILQSV | not soluble
MSRSDAGRPAPTGADADRRTMVLESAMATFARFGYRKTSMEEVARAAHISRPGLYFLFSSKESLFRAAVTQALHRDITAVERALADGDRPLPERLVEAFDHWAGRYVGPLTRDVATVIEANPGILGEVVEVLPRRFEELVTDAITVATGREGAVRIAQTMISASTGLKHQVGSRESYLERLTVAVGLLLR | not soluble
MMPAHETYDVIVVGAGAGGMTAAAVAAAEGLSVLVIEKTAFVGGTTAWSDGMVWIPANPKMKAAGLSDSVADAVQYLSSTVPEPANAGLRAAFLARGPEAVTYLEAKTEVRFLPVKTCPDYYPERLGATSGGRALEPVAFDGTRLGRAFARLRPPLPEFTLFGGMMVNRLDIPHLRRIGKSLRSTLRAARLVSEYMMQRLRSPRGTTLHLGNALAARLYASLLARQGEILFSADVEDLSMQGDRVSGVVIRHGSRDRAIAARRGVVLATGGFSHDAALRKRFFPPAAGFVSATSPSGTGDGLRLAATAGAALNTEATSPAYWVPASLFRRADGSRGVFPHTVTDRAKPGVIAVNAAGRRFVNEALSYHEFVLAMLRDGHGEPDRPFYLICDRQFLWSYGLGRIKPFTRNFRRYVASGELVEAPDITQLAAKIGIKPSVLTATIAAYNIDAKEGRDPEFGRGTTIYQRHLGDISHKPNPCVAPILRAPYFALRIYPADLGTAIGMKVDAQARVLRGDGTPIAGLYACGNDMGSIMNGNCPGPGITLGPALTFGYIAGRHLAEGGVTRELAKEQMLEHHHHHH | not soluble
MGSDKIHHHHHHMKIDLNADLGEGCASDAELLTLVSSANIACGFHAGDAQIMQACVREAIKNGVAIGAHPSFPDRENFGRSAMQLPPETVYAQTLYQIGALATIARAQGGVMRHVKPHGMLYNQAAKEAQLADAIARAVYACDPALILVGLAGSELIRAGKQYGLTTREEVFADRGYQADGSLVPRSQSGALIENEEQALAQTLEMVQHGRVKSITGEWATVAAQTVCLHGDGEHALAFARRLRSAFAEKGIVVAA | not soluble
